From US20230131339A1, “EPI-X4 BASED PEPTIDES AND DERIVATIVES THEREOF” (Universitaet Ulm, priority 2020, published 2023) come the findings set out here.

Read-outs that look alike come from different tables or passages of the source. Where a SMILES comes first, the peptide text is derived from it. Where no end group is shown, it is not given here. Side-chain parts run from the residue outwards. The star is where a group is joined. DOTA = O=C(O)CN1CCN(CC(=O)O)CCN(CC(=O)*)CCN(CC(=O)O)CC1; Stearoyl = CCCCCCCCCCCCCCCCCC(=O)*; Palmitoyl = CCCCCCCCCCCCCCCC(=O)*; Glu = glutamate linker

Data set [1] has as its system CXCR4-tropic X4-HIV-1 (NL4-3). The class given is cell-based. The following applies: CXCR4-tropic X4- (NL4-3).
Description: The activity of the peptides was estimated by different assays.
The X4-HIV inhibition assay is designed to measure the activity of the inventive peptides by their efficiency of blocking the infection of tissue culture cells by CXCR4-tropic HIV-1 variants.
HIV-1 inhibition assay. […] For infection of TZM-bl cells in presence of inhibitors, cells were seeded at a density of 1×10^5 cells/ml in 70 μl DMEM containing 2.5% FCS. Compounds were diluted in PBS and 10 μl were added. After 15 minutes of incubation cells were inoculated with 20 μl of diluted virus. Infection rates were determined three days later using Gal-Screen system (Applied Biosystems).
For data set [2], the system named is CXCL12 induced Ca2+-signalling. In words: Ca++ signaling in BCR-ABL-transformed murine bone marrow cells. The class given is cell-based. The following applies: 1 μM. As to the method:
Fifth, it was shown that the peptide derivatives inhibit calcium-signaling. CXCL12 stimulation of CXCR4 expressing B-cells leads to a strong calcium-release. In the presence of CXCR4 antagonists this response is reduced.
For calcium measurement, 1×10^6 BCR-ABL-transformed murine bone marrow cells were incubated with 5 μg/mL of Indo-1 (Molecular Probes) and 0.5 μg/mL of pluronic F-127 (Molecular Probes) in Iscove's medium supplemented with 1% FCS (Pan Biotech) at 37° C. for 45 min. Cells were then washed by centrifugation and the cell pellets were resuspended in Iscove's medium with 1% FCS and treated with the EPI-X4 derivatives (1 μM or 0.5 μM) for 10 minutes at room temperature. Cells were pre-warmed for 5 minutes at 37° C. Calcium flux was assessed by FACS measurement at BD LSR Fortessa. After 30 seconds of baseline recording, CXCR4-dependent calcium signaling was determined by stimulating with 100 ng/ml of mouse SDF-1a (PeproTech).

The test system of data set [3] is CXCL12 induced migration of T-cells. In words: Migration assay (transwell, Jurkat cells). The class given is cell-based. As to the method: For each peptide, three independent experiments were performed. The error bars refer to the standard deviation.
Migration assay. Migration assays were performed using 96-well transwell assay plates (Corning Incorporated, Kennebunk, Me., USA) with 5 μm polycarbonate filters. […] Next, 75 μL (0.5×10^5 cells) of Jurkat cells (in assay buffer), together with/without the compounds, were added into the upper chambers. After 4 h at 37° C. (5% CO2), 100 μL of the lower chambers were transferred to a fresh 96 V-well plate and analyzed with Cell-Titer-Glo® assay (Promega, Madison, Wis., USA). The percentage of migrated cells was calculated as described by Balabanian et al. (2005). In order to obtain the relative migration in %, the percentage of migrated cells were normalized to the CXCL12-only control.

The nature of data set [4]: Stability assay in human S9 liver fractions. As to conditions: with cofactors.
Description: (§1) Further, the stability of peptides in human S9 liver fractions (in the presence of cofactors) was tested (FIG. 12). […] To simulate and predict hepatic metabolic clearance, peptides were added to human S9 liver fractions. […] For each peptide, three independent experiments were performed.
(§2) Stability assay in human S9 liver fractions. Pooled human liver S9 fractions were obtained from Thermo Fisher Scientific at a total protein concentration of 20 mg/ml. Fractions were stored in 25 μl aliquots at −80° C. For stability experiments, they were diluted to a final concentration of 0.5 mg/ml in Tris buffer. Cofactors (or buffer) were added immediately before start of the experiment (NADPH: 1 mM, UDPGA: 0.5 mM, GSH: 2.5 mM, PAPS: 0.05 mg/ml, Sigma Aldrich). The reaction was started by adding peptides or compounds at a concentration of 20 μM to the mixture and gentle agitation at 37° C. Determination of enzymatic stability was performed as described for plasma.
For data set [5] the following is noted: s9, 8 h.
Description: as §1, §2
Data set [6] has as its target T1, CXC chemokine receptor type 4 (CXCR4) (human, UniProt P61073 1-352). Kind of data set: cell-based or functional assay.
Data set [7] concerns the target T2, CXC chemokine receptor type 4 (CXCR4) (human, UniProt P61073 1-352).
T2 chain: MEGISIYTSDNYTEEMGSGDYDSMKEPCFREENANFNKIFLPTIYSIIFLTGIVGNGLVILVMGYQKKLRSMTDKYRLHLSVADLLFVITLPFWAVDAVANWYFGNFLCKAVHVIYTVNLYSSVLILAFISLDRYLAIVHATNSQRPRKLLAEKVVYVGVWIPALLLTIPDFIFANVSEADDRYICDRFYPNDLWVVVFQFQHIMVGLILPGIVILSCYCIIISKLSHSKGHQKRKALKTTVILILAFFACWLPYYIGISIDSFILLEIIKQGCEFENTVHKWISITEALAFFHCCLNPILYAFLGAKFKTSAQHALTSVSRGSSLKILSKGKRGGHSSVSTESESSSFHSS
In words: 12G5 antibody competition.

Data set [8] deals with T2, CXC chemokine receptor type 4 (CXCR4). In words: 12G5 antibody competition.
Data set [9] concerns the target T3, CXC chemokine receptor type 4 (CXCR4) (human), P61073.
T3 chain: T2 chain
Kind of data set: cell-based or functional assay.

Data set [10] concerns the target T3, CXC chemokine receptor type 4 (CXCR4) …. In words: 12G5-APC antibody competition on SupT1 cells, flow cytometry. (Flow cytometry measures light scatter and fluorescence of single cells or particles in a stream.)
For data set [11] the target is unchanged. Kind of data set: competition. As to conditions: chains peptide; modification not given.
The target in data set [12] is T1, CXC chemokine receptor type 4 (CXCR4). In words: 12G5-APC antibody competition on SupT1 cells, flow cytometry. As to the method: To the right of the diagrams, an assignment of the curves to the tested peptides is explained. […] Three independent experiments were carried out for each peptide in each assay. The error bars refer to the standard deviation.
Antibody competition assay. Competition of compounds with antibody binding was performed on SupT1 cells. For that cells were washed in PBS containing 1% FCS and 50,000 cells were then seeded per well in a 96 V-well plate. Buffer was removed and plates were precooled at 4° C. […] The antibody was used at a concentration closed to its determined Kd. 15 μl compounds were then added to the cells and 15 μl antibody immediately afterwards. Plates were incubated at 4° C. in the dark for 2 hours. Afterwards cells were washed twice with PBS containing 1% FCS and fixed with 2% PFA. Antibody binding was analyzed by flow cytometry (FACS CytoFLEX; Beckman Coulter®).

Data set [13] deals with T2, CXC chemokine receptor type 4 (CXCR4). In words: competition.
Data set [14] has the same target. Kind of data set: competition.
For data set [15] the target is unchanged. In words: competition.
Data set [16] deals with T1, CXC chemokine receptor type 4 (CXCR4). In words: antibody competition assay (FIG. 5).

The term IC50 denotes the midpoint of a concentration-inhibition curve. `CCCCCCCCCCCCCCCC(=O)N[C@@H](CCC(=O)O)C(=O)NCCCC[C@H](NC(=O)[C@H](CCCNC(=N)N)NC(=O)[C@H](CO)NC(=O)[C@H](Cc1c[nH]c2ccccc12)NC(=O)[C@H](CCCNC(=N)N)NC(=O)[C@H](CC(C)C)NC(=O)[C@@H](N)[C@@H](C)CC)C(N)=O` [JM #192, ILRWSRK(Glu-Pal)-NH2] (H-ILRWSRK([Glu-Palmitoyl])-NH2; N-terminus assumed) showed an IC50 in data set [1] of 2 nM. Further, the “reduction of CXCL12 induced calcium-signaling” value in data set [2] was “almost completely blocked calcium-signaling”. Further, in [3], the “inhibition of CXCL12 induced migration of T-cells (in words)” value is on record as “high activity”. Also, the “remaining activity in plasma in vivo 4 hours post injection” value (mice, i.v. tail vein, 4 hours post injection) is reported as “completely lost”. For the same molecule, the “remaining activity in human S9 liver fractions after 2 hours” value in data set [4] (2 hours) is “faster inactivation”. Also, the “remaining activity in human S9 liver fractions after 8 hours” value in [4] (8 hours) is on record as “more rapidly degraded compared to their N-terminally modified variants”.

Turning to “ILRWSRK(Glu-Ste)-NH2 (ILRWSRK([Glu-Stearoyl])-NH2) [JM #255]”, the “inhibition of cell migration” value in data set [3] (30 nM peptide) is “almost complete inhibition of cell migration”. Moreover, in data set [5], the “remaining activity in human S9 liver fractions after 8 hours” value is “more rapidly degraded compared to their N-terminally modified variants”.

As to “ILRWSRK(Glu-Ste)LPCVS (ILRWSRK([Glu-Stearoyl])LPCVS) [JM #198]”, the “remaining activity in human S9 liver fractions after 8 hours” value in [5] is given as “more stable than its palmitoylated counterpart JM #143”. In addition, the “remaining activity in plasma in vivo 4 hours post injection” value (mouse, in vivo, iv, 4 h) is recorded as “remained completely active”. The “remaining activity in plasma in vivo 8 hours post injection” value (mouse, in vivo, iv, 8 h) is reported as 33%. In addition, the “remaining activity in plasma in vivo after 24 hours” value (mouse, in vivo, iv, 24 h) is given as “completely eliminated”.

As for ILRWSRKLP-NH2 [JM#114], the “IC50, HIV inhibition assay” value in data set [6] was over 150 nM. Moreover, the IC50 in data set [7] stood at 232 nM; in data set [8], 268 nM.

In data set [9], LVRYTKKVPQVSTPTL [EPI-X4] registered an IC50, X4-HIV-1 inhibition assay of 8630 nM and a reduction of AKT phosphorylation at 10 µM of 40%. The molecule further gave a half-inhibitory concentration (IC50) in data set [10] of 2500 nM. For the same molecule, the IC50 in data set [11] came to 2140 nM.

For the molecule ILRWSRKK-NH2 (not fully specified (residue 8)) [JM#191], the IC50 in [8] was 3 nM. In addition, in data set [12], the IC50 came to 1 nM, the “fold more effective binding than EPI-X4” value was over 2000 fold and the “fold more effective than WSC02” value was about 300 fold.

Turning to IVRWSKKVPCVS [WSC02], the “IC50, X4-HIV-1 inhibition assay” value in data set [6] came out at 310 nM. For the same molecule, the half-inhibitory concentration (IC50) was 254 nM in data set [13], 413 nM in data set [14], 274 nM in data set [15] and 350 nM in data set [12].

As to ILRWSRKLK([Glu-Palmitoyl])-NH2 [JM#193], the IC50 in data set [8] worked out at 3 nM.

B1: JM#206 (peptide)
peptide: ILRWSRKLPCVSK(DOTA)
notes: JM#21 with DOTA; also called DOTA-K-JM#21
As for B1, in data set [16], the binding result is “binds”. In [14], this molecule had a half-maximal inhibitory concentration (IC50) of 206 nM.

B2: JM#207 (peptide)
peptide: ILRWSRKLPSVSK(DOTA)
notes: JM#122 with DOTA; also called DOTA-K-JM#122
For B2, the binding result in data set [16] is listed as “binds”. In [14], this molecule registered an IC50 of 207 nM.

In the case of ILRWSRKLPCVS [JM#21], the “fold effectiveness against WSC02, AKT signaling” value in data set [6] was about 10 fold. Besides, in data set [6], the “fold more effective X4-HIV-1 inhibition than EPI-X4” value was about 100 fold. Besides, the IC50 in [13] was found to be 211 nM; in data set [14], 358 nM; in data set [15] it was 147 nM.
